In article PMC10358891, “The AMP deaminase of the mollusk Helix pomatia is an unexpected member of the adenosine deaminase-related growth factor (ADGF) family” (PLOS ONE, 2023) one finds Km and kcat data, which are given here for 1 protein.

Substrate in the series: Nc1ncnc2c1ncn2[C@@H]1O[C@H](COP(=O)(O)O)[C@@H](O)[C@H]1O
Briefly: spectrophotometric deamination assay, initial rates, Lineweaver-Burk. It counts as biochemical, Helix pomatia. Conditions: 20 mM Tris-HCl pH 7.5, 50 mM NaCl, 25 °C (general assay buffer). An excerpt: spectrophotometric deamination assay, initial rates, Lineweaver-Burk on […]

For orientation: Km means the substrate concentration at which the rate is half of its maximum.

B1: HPAMPD (recombinant H. pomatia AMP deaminase) (Helix pomatia) (protein)
chain: LAVRFPTMDEYTNAREELIGSEQYLRVGGSINLNNKEKKLNQFILREKRAIIENSRLNKTQYIPAVSFFLSKSQMESTPIFKIIKDMPKGAALHLHDTASARIDWIVSNATYRDHVYMCMDQDNFVRLTVSGTGPPANSGCEWKLVETERANSGDIAAFDHWLKSNISLLTTDPLVTYPSLDKVWGRFDKHFSQLRGIIYHTPIRRDYYRQILEEFRSDNVQYVEVRSSLSGYYDLDGTVHDPEYGLQLYKAVTEEFVRTYPDFSGAKIIKSTARVKPNTDIFNDVKLSMDLYKRYPGFFLGFDLVAQEDPNTSLLGYIDSLLYPSRQNPPVSLPYYFHAGETNWQGTEVDYNLVDALLLNATRIGHGFALIKHPRVIELVKSRGVAVEVNPVSNQLLGLVKDLRNHAAAPLLAQNVPVVISSDDPGVWEALPMSHDMYVAFMDLVGEDAGLDVLKQLVWNSIQYSSMNATEKKTALKLLQAKWNNFINDSLIKWKLTNKKVI
notes: secreted from Pichia pastoris with alpha-factor signal; C-terminal His10; Endo Hf treated; 58676 Da; ORF 536 residues; homodimer predicted
For B1, the Km came out at 25 µM and the kcat is listed as 170 per second.
